Bridge positions count the residues as written; N and C are the ends. Ends that are not written are not given here. COCH2 = acetyl group that carries the bridge
Biological target: T1, Recombinant Human FGFR2 alpha (IIIc) Fc Chimera Protein, CF (R&D systems, 712-FR-050) (human, UniProt P21802 22-377)
T1 construct: bought; not shown: Fc part of the chimera
Test: ELISA on plate-bound FGFR2-Fc
In short: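 Peptide binding scored by category from dose-response of background-corrected luminescence (FGFR-coated minus uncoated wells). Detection via anti-Myc antibody (2 h, room temperature) after 3 h peptide incubation on wells coated with 5 ng FGFR2 alpha (IIIc)-Fc.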

T1 sequence (P21802 22-377, change not shown): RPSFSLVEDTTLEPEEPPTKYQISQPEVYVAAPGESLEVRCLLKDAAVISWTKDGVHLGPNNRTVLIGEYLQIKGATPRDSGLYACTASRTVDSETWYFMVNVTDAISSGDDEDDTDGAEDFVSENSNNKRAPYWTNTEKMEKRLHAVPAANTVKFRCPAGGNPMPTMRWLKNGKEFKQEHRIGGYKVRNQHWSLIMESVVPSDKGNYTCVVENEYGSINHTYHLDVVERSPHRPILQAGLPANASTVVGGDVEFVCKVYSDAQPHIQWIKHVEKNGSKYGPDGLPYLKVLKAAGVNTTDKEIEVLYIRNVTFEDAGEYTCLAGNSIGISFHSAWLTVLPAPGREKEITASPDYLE

Row | ELISA luminescence signal at 10 nmol/L peptide, relative to SEQ ID NO: 47 (=1) | Binder
1 | ≥ 0.7 ratio | YCKENYLDPEQYQYFIYFK(COCH2)Y (thioether 2-19; not fully specified; printed as Y-(C)-KENYLDPEQYQYFIYF-(K(acetyl))-Y) [cyclic peptide SEQ ID NO: 336]
2 | ≥ 0.7 ratio | YCEENYLDPEQYQYFIYFK(COCH2)A (thioether 2-19) [cyclic peptide SEQ ID NO: 334]
3 | 0.1 to 0.5 ratio | YCEENALDPEQYQYFIYFK(COCH2)Y (thioether 2-19 (inferred)) [cyclic peptide SEQ ID NO: 326]
4 | ≥ 0.7 ratio | ACEENYLDPEQYQYFIYFK(COCH2)Y (thioether 2-19 (inferred)) [cyclic peptide SEQ ID NO: 322]
5 | ≥ 0.7 ratio | YCAENYLDPEQYQYFIYFK(COCH2)Y (thioether 2-19 (inferred)) [cyclic peptide SEQ ID NO: 323]
6 | ≥ 0.7 ratio | YCEENYLDPEQYQYFAYFK(COCH2)Y (thioether 2-19) [cyclic peptide SEQ ID NO: 332]
7 | ≥ 0.7 ratio | YCEENYLDPEQYAYFIYFK(COCH2)Y (thioether 2-19) [cyclic peptide SEQ ID NO: 331]
8 | ≥ 0.7 ratio | KCEENYLDPEQYQYFIYFK(COCH2)Y (thioether 2-19; not fully specified; printed as K-(C)-EENYLDPEQYQYFIYF-(K(acetyl))-Y) [cyclic peptide SEQ ID NO: 335]
9 | 0.1 to 0.5 ratio | YCEEAYLDPEQYQYFIYFK(COCH2)Y (thioether 2-19 (inferred)) [cyclic peptide SEQ ID NO: 325]
10 | ≥ 0.7 ratio | YCEANYLDPEQYQYFIYFK(COCH2)Y (thioether 2-19 (inferred)) [cyclic peptide SEQ ID NO: 324]
11 | ≥ 0.7 ratio | YCEENYLAPEQYQYFIYFK(COCH2)Y (thioether 2-19 (inferred)) [cyclic peptide SEQ ID NO: 328]
12 | ≥ 0.7 ratio | YCEENYLDAEQYQYFIYFK(COCH2)Y (thioether 2-19 (inferred)) [cyclic peptide SEQ ID NO: 329]
13 | ≥ 0.7 ratio | YCEENYLDPAQYQYFIYFK(COCH2)Y (thioether 2-19 (inferred)) [cyclic peptide SEQ ID NO: 330]
14 | 0.1 to 0.5 ratio | YCEENYADPEQYQYFIYFK(COCH2)Y (thioether 2-19 (inferred)) [cyclic peptide SEQ ID NO: 327]
15 | ≥ 0.7 ratio | YCEENYLDPEQYQYFIAFK(COCH2)Y (thioether 2-19) [cyclic peptide SEQ ID NO: 333]

Second part, the binder before the results:

Row | Binder | ELISA luminescence signal at 10 nmol/L peptide, relative to SEQ ID NO: 47 (=1)
16 | YCEENYLDPEQYQYFIIFK(COCH2)Y (thioether 2-19 (inferred)) [cyclic peptide SEQ ID NO: 294] | 0.5 to 0.7 ratio
17 | YCEENYLDPEQYQYFIVFK(COCH2)Y (thioether 2-19 (inferred)) [cyclic peptide SEQ ID NO: 295] | ≥ 0.7 ratio
18 | YCEENYLDPEQYQYFIYFK(COCH2)F (thioether 2-19 (inferred)) [cyclic peptide SEQ ID NO: 312] | ≥ 0.7 ratio
19 | YCEENYLDPEQYQYFISFK(COCH2)Y (thioether 2-19 (inferred)) [cyclic peptide SEQ ID NO: 300] | ≥ 0.7 ratio
20 | YCEENYLDPEQYQYFIYFK(COCH2)R (thioether 2-19 (inferred)) [cyclic peptide SEQ ID NO: 320] | ≥ 0.7 ratio
21 | YCEENYLDPEQYQYFIYFK(COCH2)I (thioether 2-19 (inferred)) [cyclic peptide SEQ ID NO: 310] | ≥ 0.7 ratio
22 | YCEENYLDPEQYQYFIYFK(COCH2)H (thioether 2-19 (inferred)) [cyclic peptide SEQ ID NO: 321] | ≥ 0.7 ratio
23 | YCEENYLDPEQYQYFIEFK(COCH2)Y (thioether 2-19 (inferred)) [cyclic peptide SEQ ID NO: 303] | ≥ 0.7 ratio
24 | YCEENYLDPEQYQYFIYFK(COCH2)N (thioether 2-19 (inferred)) [cyclic peptide SEQ ID NO: 314] | ≥ 0.7 ratio
25 | YCEENYLDPEQYQYFINFK(COCH2)Y (thioether 2-19 (inferred)) [cyclic peptide SEQ ID NO: 298] | ≥ 0.7 ratio
26 | YCEENYLDPEQYQYFIQFK(COCH2)Y (thioether 2-19 (inferred)) [cyclic peptide SEQ ID NO: 299] | ≥ 0.7 ratio
27 | YCEENYLDPEQYQYFIYFK(COCH2)T (thioether 2-19 (inferred)) [cyclic peptide SEQ ID NO: 317] | ≥ 0.7 ratio
28 | YCEENYLDPEQYQYFIYFK(COCH2)V (thioether 2-19 (inferred)) [cyclic peptide SEQ ID NO: 311] | ≥ 0.7 ratio
29 | YCEENYLDPEQYQYFIYFK(COCH2)L (thioether 2-19 (inferred)) [cyclic peptide SEQ ID NO: 309] | ≥ 0.7 ratio
30 | YCEENYLDPEQYQYFIYFK(COCH2)S (thioether 2-19 (inferred)) [cyclic peptide SEQ ID NO: 316] | ≥ 0.7 ratio
31 | YCEENYLDPEQYQYFIHFK(COCH2)Y (thioether 2-19 (inferred)) [cyclic peptide SEQ ID NO: 305] | ≥ 0.7 ratio
32 | YCEENYLDPEQYQYFIYYK(COCH2)Y (thioether 2-19 (inferred)) [cyclic peptide SEQ ID NO: 306] | ≥ 0.7 ratio
33 | YCEENYLDPEQYQYFIYWK(COCH2)Y (thioether 2-19 (inferred)) [cyclic peptide SEQ ID NO: 307] | ≥ 0.7 ratio
34 | YCEENYLDPEQYQYFITFK(COCH2)Y (thioether 2-19 (inferred)) [cyclic peptide SEQ ID NO: 301] | ≥ 0.7 ratio
35 | YCEENYLDPEQYQYFIYFK(COCH2)D (thioether 2-19 (inferred)) [cyclic peptide SEQ ID NO: 318] | ≥ 0.7 ratio
36 | YCEENYLDPEQYQYFIFFK(COCH2)Y (thioether 2-19 (inferred)) [cyclic peptide SEQ ID NO: 296] | ≥ 0.7 ratio
37 | YCEENYLDPEQYQYFIDFK(COCH2)Y (thioether 2-19 (inferred)) [cyclic peptide SEQ ID NO: 302] | ≥ 0.7 ratio
38 | YCEENYLDPEQYQYFIWFK(COCH2)Y (thioether 2-19 (inferred)) [cyclic peptide SEQ ID NO: 297] | ≥ 0.7 ratio
39 | YCEENYLDPEQYQYFIYFK(COCH2)E (thioether 2-19 (inferred)) [cyclic peptide SEQ ID NO: 319] | ≥ 0.7 ratio
40 | YCEENYLDPEQYQYFIRFK(COCH2)Y (thioether 2-19 (inferred)) [cyclic peptide SEQ ID NO: 304] | ≥ 0.7 ratio
41 | YCEENYLDPEQYQYFIYFK(COCH2)G (thioether 2-19 (inferred)) [cyclic peptide SEQ ID NO: 308] | ≥ 0.7 ratio
42 | YCEENYLDPEQYQYFIYFK(COCH2)W (thioether 2-19 (inferred)) [cyclic peptide SEQ ID NO: 313] | ≥ 0.7 ratio
43 | YCEENYLDPEQYQYFIYFK(COCH2)Q (thioether 2-19 (inferred)) [cyclic peptide SEQ ID NO: 315] | ≥ 0.7 ratio
